Experimental data as given in patent US20090215081.

Molecular target: T1, FLAG-TCF4, full length human TCF4 expressed from pFLAG-CMV-4, Q9NQB0
T1 chain: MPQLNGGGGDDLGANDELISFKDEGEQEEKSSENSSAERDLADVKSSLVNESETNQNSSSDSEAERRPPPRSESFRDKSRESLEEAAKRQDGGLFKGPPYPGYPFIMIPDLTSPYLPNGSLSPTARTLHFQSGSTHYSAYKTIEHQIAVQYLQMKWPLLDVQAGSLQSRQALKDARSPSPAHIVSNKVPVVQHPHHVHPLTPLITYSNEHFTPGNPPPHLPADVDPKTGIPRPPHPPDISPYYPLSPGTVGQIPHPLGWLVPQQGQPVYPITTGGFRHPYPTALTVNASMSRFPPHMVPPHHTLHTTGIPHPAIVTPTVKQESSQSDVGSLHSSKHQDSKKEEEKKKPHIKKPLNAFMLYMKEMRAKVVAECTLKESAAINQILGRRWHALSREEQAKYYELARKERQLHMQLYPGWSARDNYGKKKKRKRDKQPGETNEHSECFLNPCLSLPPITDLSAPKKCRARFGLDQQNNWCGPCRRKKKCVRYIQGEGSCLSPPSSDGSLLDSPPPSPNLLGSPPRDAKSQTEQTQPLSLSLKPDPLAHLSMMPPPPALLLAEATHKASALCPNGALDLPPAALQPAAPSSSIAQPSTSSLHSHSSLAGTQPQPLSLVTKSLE

B1: HA-TNIK, wild-type human TNIK full length expressed from pCIneo-HA-TNIK (protein)
chain: MASDSPARSLDEIDLSALRDPAGIFELVELVGNGTYGQVYKGRHVKTGQLAAIKVMDVTGDEEEEIKQEINMLKKYSHHRNIATYYGAFIKKNPPGMDDQLWLVMEFCGAGSVTDLIKNTKGNTLKEEWIAYICREILRGLSHLHQHKVIHRDIKGQNVLLTENAEVKLVDFGVSAQLDRTVGRRNTFIGTPYWMAPEVIACDENPDATYDFKSDLWSLGITAIEMAEGAPPLCDMHPMRALFLIPRNPAPRLKSKKWSKKFQSFIESCLVKNHSQRPATEQLMKHPFIRDQPNERQVRIQLKDHIDRTKKKRGEKDETEYEYSGSEEEEEENDSGEPSSILNLPGESTLRRDFLRLQLANKERSEALRRQQLEQQQRENEEHKRQLLAERQKRIEEQKEQRRRLEEQQRREKELRKQQEREQRRHYEEQMRREEERRRAEHEQEYIRRQLEEEQRQLEILQQQLLHEQALLLEYKRKQLEEQRQAERLQRQLKQERDYLVSLQHQRQEQRPVEKKPLYHYKEGMSPSEKPAWAKEVEERSRLNRQSSPAMPHKVANRISDPNLPPRSESFSISGVQPARTPPMLRPVDPQIPHLVAVKSQGPALTASQSVHEQPTKGLSGFQEALNVTSHRVEMPRQNSDPTSENPPLPTRIEKFDRSSWLRQEEDIPPKVPQRTTSISPALARKNSPGNGSALGPRLGSQPIRASNPDLRRTEPILESPLQRTSSGSSSSSSTPSSQPSSQGGSQPGSQAGSSERTRVRANSKSEGSPVLPHEPAKVKPEESRDITRPSRPASYKKAIDEDLTALAKELRELRIEETNRPMKKVTDYSSSSEESESSEEEEEDGESETHDGTVAVSDIPRLIPTGAPGSNEQYNVGMVGTHGLETSHADSFSGSISREGTLMIRETSGEKKRSGHSDSNGFAGHINLPDLVQQSHSPAGTPTEGLGRVSTHSQEMDSGTEYGMGSSTKASFTPFVDPRVYQTSPTDEDEEDEESSAAALFTSELLRQEQAKLNEARKISVVNVNPTNIRPHSDTPEIRKYKKRFNSEILCAALWGVNLLVGTENGLMLLDRSGQGKVYNLINRRRFQQMDVLEGLNVLVTISGKKNKLRVYYLSWLRNRILHNDPEVEKKQGWITVGDLEGCIHYKVVKYERIKFLVIALKNAVEIYAWAPKPYHKFMAFKSFADLQHKPLLVDLTVEEGQRLKVIFGSHTGFHVIDVDSGNSYDIYIPSHIQGNITPHAIVILPKTDGMEMLVCYEDEGVYVNTYGRITKDVVLQWGEMPTSVAYIHSNQIMGWGEKAIEIRSVETGHLDGVFMHKRAQRLKFLCERNDKVFFASVRSGGSSQVFFMTLNRNSMMNW
serine phosphorylation of TCF4 (immunoprecipitation with anti-TCF4, immunoblot with anti-phospho-serine antibody): the serine phosphorylation band of TCF4 was detected
